Earlier results, collected in article doi:10.1101/2025.05.21.655333.

Target: Lys287 (UniProt position 287, GGQGLKILIHV)
Test: kinetics
Conditions: The kcat/Km profile reports on free enzyme and free substrate

L-6-hydroxynicotine oxidase (Pyridine-LHNO) (Paenarthrobacter nicotinovorans)
pKa: 9.7
